These results are taken from patent CN1827647A (SHANGHAI ZHANGJIANG BIO TECH C, dated 2006).

For this assay, the target named is T1, EGFR蛋白 (表皮生长因子受体, 购自晶美生物公司) (UniProt P00533 25-645, limits assumed).
T1 construct: Bought protein used as the coating antigen; also called c-erbB1/Her1
Kind of assay: Scatchard analysis; concluding sentence on the result.

B1: 3C6单克隆抗体 (重组人源抗EGFR单克隆抗体, produced by CHO cell line 3C6) (antibody, V domains shown)
VH: QVQLKESGPGLVAPSQSLSITCTVSGFSLTNYGVHWVRQPPGKGLEWLGVIWSGGNTDYNTPFTSRLNISKDNSKSQVFLRMYSLQTDDTARYYCARALTYYDYEFAYWGQGTLVTVSS
VL: not shown
In general, Kd refers to the concentration at which binding is half-saturated. Higher therefore signals a looser complex. B1: the Kd is ~1 nM.
